The target of experiment [1] is Prog-Albumin偶联物(购自益缪诺，货号PROGO2). Put plainly: biolayer interferometry, AMC sensor, antibody immobilised at 10 ug/ml, Prog-Albumin conjugate in dilution series. In general terms: BLI is a label-free optical method that tracks binding on a fibre tip over time.
Experiment [2] has the same target. Briefly: indirect ELISA, Prog-Albumin conjugate coated at 3 ug/ml, antibody at 62.5 ng/ml. Background: In an ELISA, binding on a coated surface is turned into a signal by an enzyme label.
The target is the same in experiment [3]. Put plainly: indirect ELISA, Prog-Albumin conjugate coated at 3 ug/ml, antibody at 15.625 ng/ml.
For experiment [4] the target is unchanged. Briefly: indirect ELISA, Prog-Albumin conjugate coated at 3 ug/ml, antibody at 31.25 ng/ml.
For experiment [5] the target is unchanged. Briefly: indirect ELISA, Prog-Albumin conjugate coated at 3 ug/ml, antibody at 125 ng/ml.
Experiment [6] has the same target. Briefly: indirect ELISA, Prog-Albumin conjugate coated at 3 ug/ml, antibody at 250 ng/ml.

This is an account of results in CN116836278A.

For orientation: Kd means the constant that tells how readily two partners part at equilibrium. High values mean a looser complex, low ones a tighter complex. For orientation: koff means the rate constant with which the complex falls apart. Read a high koff as a short-lived complex. For orientation: kon means the second-order rate constant of association. Low readings indicate slower complex formation, high ones faster complex formation. In experiment [1], 对照 (antibody) came in with a Kd of 9.12 nM. In experiment [1], this molecule returned a koff of 0.0002 s⁻¹. Further, in experiment [1], the kon came out at 21900 M⁻¹ s⁻¹. The OD450 in experiment [2] was determined as 0.686 OD; in experiment [3] it was 0.148 OD; in experiment [4] it was 0.319 OD; in experiment [5], 1.85 OD; in experiment [6] it was 2.19 OD.

B1: Anti-Prog-5B3mut2 (antibody, part only; not given: light chain, part only)
heavy: QVRLQESGPSLVKPSQTLSLTCTVSGFELTSKAVGWVRQAPGKVPEWLGSIVSGGATYYDPALKSRLTITRDTSKSQVSLSISSVSSEDTAEYWCVRASYAAGIWYFDYWGPGLLVTVSSASTTPPKVYPLTSCCGDTSSSIVTLGCLVSSYMPEPVTVTWNSGALTSGVHTFPAILQSSGLYSLSSVVTVPASTSGAQTFICNVAHPASSTKVDKRVGLSSDYSKCSKPPCVSRPSVFIFPPKPKDSLMITGTPEVTCVVVDVGQGDPEVQFSWFVDNVEVRTARTKPREEQFNSTFRVVSALPIQHDHWTGGKEFKCKVHSKGLPAPLVRTISRAKGQAREPQVYVLAPPQEELSKSTLSVTCLVTGFYPDYIAVEWQRARQPESEDKYGTTTSQLDADGSYFLYSRLRVDKSSWQRGDTYACVVMHEALHNHYTQKSISKPPGK
In the case of B1, the Kd in experiment [1] was 0.33 nM. In addition, the koff in experiment [1] was 0.00027 s⁻¹. In experiment [1], this molecule displayed a kon of 819000 M⁻¹ s⁻¹. Also, the OD450 in experiment [2] is 1.07 OD; in experiment [3], 0.36 OD; in experiment [4], 0.603 OD; in experiment [5] it was 2.06 OD; in experiment [6], 2.36 OD.

B2: Anti-Prog-5B3mut1 (antibody, V domains shown)
VH: QVRLQESGPSLVKPSQTLSLTCTVSGFELTSKAVGWVRQAPGKVPEWLGSIVSGGATYYDPALKSRLTITRDTSKSQVSLSISSVSSEDTAEYWCVRASYAAGIWYFDYWGPGLLVTVSS
VL: QAVLTQPPSVSGSLGQRVSLTCSGSSTNIGGGSYVHWYQRLPASGLKTIIYGTSRRPSGVPDRFSGSRSGNTATLTITSLQAEDEADYYCATEDSGSYPFGSGTRLTVLG
For the molecule B2, the Kd in experiment [1] was found to be 0.168 nM. Moreover, the koff in experiment [1] amounted to 0.00032 s⁻¹. Also, the kon in experiment [1] amounted to 1.91e+06 M⁻¹ s⁻¹. Also, the OD450 in experiment [2] stood at 0.94 OD; in experiment [3], 0.32 OD; in experiment [4], 0.566 OD; in experiment [5] it was 1.92 OD; in experiment [6], 2.22 OD.
